Publication PMC3951440, “Assessing Specific Oligonucleotides and Small Molecule Antibiotics for the Ability to Inhibit the CRD-BP-CD44 RNA Interaction” (PLoS ONE, 2014)

Key:
CRD-BP (IMP1) (mouse) [1] = target: CRD-BP (IMP1) (mouse) (UniProt O88477); experiment: EMSA; settings: EMSA: 5 mM Tris-Cl pH 7.4, 2.5 mM EDTA, 2 mM DTT, 5% glycerol, 0.1 mg/ml BSA, 0.5 mg/ml yeast tRNA, 5 U RNasin; 30 C with ice steps; 40 nM RNA probe
CRD-BP (IMP1) (mouse) [2] = target: CRD-BP (IMP1) (mouse) (UniProt O88477); experiment: competition; settings: EMSA: 5 mM Tris-Cl pH 7.4, 2.5 mM EDTA, 2 mM DTT, 5% glycerol, 0.1 mg/ml BSA, 0.5 mg/ml yeast tRNA, 5 U RNasin; 30 C with ice steps; 40 nM RNA probe

Sequence of CRD-BP (IMP1) (mouse) (O88477 whole entry): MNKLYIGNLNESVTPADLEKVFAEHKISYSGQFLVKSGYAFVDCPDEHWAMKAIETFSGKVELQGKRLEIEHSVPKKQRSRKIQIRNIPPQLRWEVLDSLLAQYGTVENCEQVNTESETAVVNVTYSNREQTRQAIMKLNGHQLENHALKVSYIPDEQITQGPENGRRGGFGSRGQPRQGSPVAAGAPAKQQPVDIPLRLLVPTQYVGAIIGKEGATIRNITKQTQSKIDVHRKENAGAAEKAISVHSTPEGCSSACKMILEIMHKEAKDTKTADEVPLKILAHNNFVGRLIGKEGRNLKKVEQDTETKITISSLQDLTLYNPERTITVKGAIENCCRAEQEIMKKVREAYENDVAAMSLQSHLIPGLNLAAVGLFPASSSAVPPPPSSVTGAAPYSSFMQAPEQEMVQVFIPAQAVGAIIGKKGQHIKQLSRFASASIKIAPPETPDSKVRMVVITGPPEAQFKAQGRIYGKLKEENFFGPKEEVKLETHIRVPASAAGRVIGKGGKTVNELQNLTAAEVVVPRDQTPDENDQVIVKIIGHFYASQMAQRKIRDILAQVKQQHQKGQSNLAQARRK

| Sequence | binding signal (CRD-BP (IMP1) (mouse) [1]) [% bound] | binding (CRD-BP (IMP1) (mouse) [1]) | further results |
| --- | --- | --- | --- |
| GGAAAUUAGGGCCCAAUUAAUAAUCAGCAAGAAUUUGAUCGUUCCAGUUCCCACUUGGAGGC [P2 RNA] | 5 | – | – |
| GGAAAUUAGGGCCCAAUUAAUAAUCAGCAAGAAUUUGAUCGUUCCAGUUCCCACUUGGAGGCCUUUCAUCCCUCGGGUGUGCUAUGGAUGGCUUCUAACAAAAACUACACAUAUGUAUUCCU [P4 RNA] | – | no binding | – |
| GGAAAUUAGGGCCCAAUUAAUAAUCAGCAAGAAUUUGAUCGUUCCAGUUCCCACUUGGAGGCCUUUCAUCCCUCGGGUGUGCUAUGGAUGGCUUCUAACAAAAACUACACAUAUGUAUUCCUGAUCGCCAACCUUUCCCCCACCAGCUAA [P5 RNA] | 15 | – | – |
| GGAAAUUAGGGCCCAAUUAAUAAUCAGCAAGAAUUUGAUCGUUCCAGUUCCCACUUGGAGGCCUUUCAUCCCUCGGGUGUGCUAUGGAUGGCUUCUAACAAAAACUACACAUAUGUAUUCCUGAUCGCCAACCUUUCCCCCACCAGCUAAGGACAUUUCCCAGGGUUAAUAGGGCCUGGU [P6 RNA] | – | binds | – |
| GGAAAUUAGGGCCCAAUUAAUAAUCAGCAAGAAUUUGAUCGUUCCAGUUCCCACUUGGAGGCCUUUCAUCCCUCGGGUGUGCUAUGGAUGGCUUCUAACAAAAACUACACAUAUGUAUUCCUGAUCGCCAACCUUUCCCCCACCAGCUAAGGACAUUUCCCAGGGUUAAUAGGGCCUGGUCCCUGGGAGGAAAUUU [CD44 Fragment 4 RNA] | – | – | binding (CRD-BP (IMP1) (mouse) [2]): binds; Kd (CRD-BP (IMP1) (mouse) [1]): 645 nM |
